Laboratory results: the nanobody polyreactivity screen of Harvey et al. (2022)

assay: yeast display, Sf9 membrane polyspecificity reagent, FACS + sequencing; frameworks hold sequencing errors
Method in brief: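 Galactose-induced (36–48 hours) yeast carrying a synthetic nanobody display library were exposed to 10% biotinylated, detergent-solubilized Sf9 membrane reagent at 4 °C for 1 hour. FACS followed streptavidin microbead enrichment, using low and high (top ~1%) gates for expression (anti-HA) and reagent binding (streptavidin). Colony PCR, MiSeq 2 × 250 sequencing and CDR-length filtering followed. Labels for polyreactivity reflect the gate of origin.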

Sequence	polyreactivity (PSR sort gate)
QVQLVESGGGLVQAGGSLRLSCAASGRTFGYYAMGWYRPAPGKERELVAAISSGGRTYYADSVKGRFTISRDNAKNTVYLQMNSLKPEDTAVYYCNAASLVAYLARLGRDYWGQGTQVTVSS	low polyreactivity
QVQLVESGGGLVQAGGSLRLSCAASGRILPFNAMGWYRPAPGKERELVAAIRWRGSSTYYADSVKGRFTISRDNAKNTVYLQMNSLKPEDTAVYYCAAPSSVRGKVISADYGYWGQGTQVTVSS	high polyreactivity
QVQLVESGGGLVQAGGSLRLSCAASGRIFTAYDMGWYRQAPGKERELVAAITRSSGSTYYADSVKGRFTISRDNAKNTVYLQMNSLKGEDTAVYYCATDGEFWGYDSWGQGTQVTVSS	low polyreactivity
QVKLVDSGGGLVQAGGSLRISCGASGRTFYGYDMGWYRQAPGKERELVAAINWRGVRTYYADSVKGRFTISRDNAKNTDYLEMNCLKPEDTAVYYCGVYNHWVYGNDYWGQGTQVTVSS	high polyreactivity
QVQLVESGGGLVQAGGSLRLSCAASGFTFTWYAMGWYRQAPGKERELVATISRSGGRTYYADSVKGRFTISRDNAKNTVYLQMNSLKPEDTAVYYCAADTRNYPRYDYWGQGTQVTVSS	high polyreactivity
QVQLVESGGGLVQAGGSLRLSCAASGLTFDWYTKGWSRQAPGKERELVATINSGGSTDYADSVKGRFTISRDNAKNTVYLQLNSLKPEDTAVYYCNAEYGYSGVGDDYWGQGTQVTVSS	low polyreactivity
QVQLVESGGGLVQAGGSLRLSCSASGSIFVGYAIGWYRQAPVKEMELDASISSGDDTYADSVKGRFTISRDNAKNSVYLQMNSLKPEDTAVYYCAKDSISVDCAYDYWVQGTQVTVSS	low polyreactivity
QVQLVESGGGLVQAGGSLRLSCAASASTFWKYAMGWYRQAPGKEREFVAAITRSGGNTYYADSVQGRFTISRDNAKNTVFLQMNSLKPEDTAVYYCDKVTTVPYTNDYWGQGTQVTVSS	high polyreactivity
QVQLVESGGGLVQAGGSLRLSCAASGITFTSYAMGWYRQAPGKERELVAAISWSGDRTYYADSVKGRFTISRDNAKNTVYLQMNSLKPEDTAVYYCAADQFTGSVWAYYYWGQGTQVTVSS	high polyreactivity
QVQLVESGGGLVQAGGSLRLSCAASGFIFTTYAMGWYRQEPGTERELVAAISGRGGTTYYADSVKGRFTISRDNAKNTVYLQMNSMKPEDTAVYYCAADGYPGDDYWGQGTQVTVSS	high polyreactivity
QVQLVESGGGLVQAGGSLRLSCAASGRTFWYYDMGWYRQAPGKERELVATINNVGSTHYADSVKGRFTISRDNAKNTVYLQMNSLKPEDTAVYYCARASYGKMDYWGQGTQVTVSS	high polyreactivity
KVQLVESGGGLVQAGGSLRLSCAASGSTFSTNAMGRYRQAPGKERELVAAISRTGGSTYYADSVKGRFTISRDNAKNNVYLPMNILKPEDTAVYYSARYSYRGTNVRFDYWGQGTQVTLSS	high polyreactivity
QVQLVESGGGLVQAGGSLRLSCAASGRTSRVNAMGWYRQAPGKERELVATITKSGGSTFYADSVKGRFTISRDNPKNTVYLQMNILKPEDTAVYYCNAGGVRATKGYDYWGQGTQVTVSS	low polyreactivity
QVHLVESGGGLVQAGGSLRLSCAAYGRNFQYNAMGWDRQAPGKEREFVASISGSGGRTYYADSVKGRFTISRDNAKNTVYLQMNSLKPEDTAVYYCNASLLFPLLYGPESGEFDYWGQGSQVTVSS	low polyreactivity
QVQLEESGGGLVQAGGSLRLSCAASGRIFGYYDMGWYRQAPGKERELVARITRGGGTTYYADSVKGRFTISRDNAKNTVYLQMNSLKPEDTAVYYCAAVRSWWHTHYNYDYWGQGTQVTVSS	high polyreactivity
QDQLVESGGGLVQAGGSLRLSCAASGLIFVRYAMGWYRQAPGKERELVATITWSGGTTYADSVKGRFTISRDNAKKTVYLQMNSLNPEDTAVYYCAVASGPELDYWGQGTQVTVSS	low polyreactivity
QVQLVESAGGLVQAGGSLRLSCAASGGIFGINAMGWYRQAPGKERELVAAINLSGGRTYYADSVKGRFTISRDNAKNTVYLQMNSLKPEDTAVYYCAAFYGYSLYGHYEYWGQGTQVTVSS	high polyreactivity
QVQLVESGGGIVQAGGSLRLSCAASGFNFSLYAMGWYRQAPGKERELVAVIDRRGGNTYYADSVKGRFTISRDNAKNTVYLQMNSLKPEDTAVYSCAADRRFHYDYWGQGTQVTVSS	high polyreactivity
QVQLVESGGGLVQAGGSLRLSCAASGFIFRYNTMGWYRQAPGKERELVAAISVSGARTYYADSVKGRFTISRDNAKNTVYLQMNSLKPEDTAVYYCNRRYPFYSRYNNDYWGQGTQVTVSS	high polyreactivity
QVQLVESGGGLVQAGDSLRLSCAASGIILLSYAMGWYRQAPGKERELVAAITSGGGTNYADSVKGRFTISRDNAKNTVYLQMNSLKPEDTAVYYCAVGAYAGLYYYWGQGTQVTVSS	low polyreactivity
QDQLVESGGGLVQAGGSLRLSCAASGSTFSFYAMGWTRQAPGKERELVAAISRSGGSTFYADSVKGRFTISRDNAKNTVYLQMNSLKPEDSAVYYCAAYGGLQSRYYYWGQGTQVTVSS	high polyreactivity
QVQLVVSGGGLVQAGGSLRLSCAASGRIFVYNAMGWYRQAPGKERELVATITSGGSTYYADSVKGRFTISRDNAKNTVYLQMNSLKPEDTAVYYCAARRWYVHYFAYGYWGQGTQVTVSS	low polyreactivity

Sequence	polyreactivity (PSR sort gate)
QVQLVESGGGLVQAGGSLRLSCAASGFTFPQYVMGGYRQAPGKERELVAAISSRGGRTYYADSVKGRFTISRDNAKNTVYLQMNSLIPEDTAVYYCAKGKRDSRAFDYWGQGTQVTVSS	high polyreactivity
QVQLVESGGGLVQAGGSLRLSCAASGSIFYHYSMGWYRQAPGKERELVAAITRSGGSTYYADSVKGRFTISRDNAKNTVFLQMNSLNPEDTAVYYSAKDPDSYNFLTSNWYDYWGLGTQVTVSS	low polyreactivity
QDQLVESGGGLVQAGGSLRLSCAASGGNFPPYDMGWYRQAPGKERDLVATISSDSTNYADSVKGRFTISRDNAKNTVYLQMNSLKPEDSAVYYCAVRFYWAPGGGEYDYWGQGTQVTVSS	low polyreactivity
QVQLVESGGGLVQAGGSLRLSCAASGYIFSHYAMAWYRQAPGKERELVAAISRNGGSTYYADSVKGRFTISRDNAKNTVYLQMNSLKPEDTSVYYCAVGWKYRYGYWGQGTQVTVSS	high polyreactivity
QVQIVESGGGLVQAGGSLRLSCAASGSISVANAMGWYRQAPGKERELVAAITDSGDDTYYADSVKGRFTISRDNAKNTVYFQMNSLKPEDTELYYCAVEAWSVPPYDYWGQGTQVTVSS	low polyreactivity
QVQLVESGGGLVQAGCSLSISCAASGSTFFRYAMGLYRQAPGKERELVAAISKSGASTYYADSVKGSFTISRDNAKNTVYLQMNRLKPEDTAVYYCNADVKKSSAREWQYCYDYWGQGTQVTVSS	low polyreactivity
QVQLVESGGGLVQAGGSLRLSWAASGFTFTPYAMGWYRPAPGKEREFVAAISQRGTSTFYADSVKGRFTISRDNAKHTVYLQMNSLKPEDTAVYYCAKPYRQYTSAYYNTYNYWGQGTEVTVSS	high polyreactivity
QVQLVESGGGLVQAGGSLRLSCAASGNIFTSYAMGWYRQAPGKERELVAAISSGGRTSYADSVKGRFTISRDNAKNTVYLEMNSLKPEDNAVYYCAAYYRRWQREYYYWGQGTKVTVSS	high polyreactivity
QVQLVESGGGLVQAGGSLRLSCAASGNIFYQYAMGWYRQAPGKDREFVAAISISGTSTYADSVKGRFTISRDNAKNTVYLQMNSLKPEDTAVYWGQGTQVTVSS	low polyreactivity
QVHLVESGGGLVQAGGSLRLSCAASGFTFYYYAMGWYRQAPGKERELVAAISDSGGITYYADSVKGRFTISRDNAKNTVYLQMNSLKPEDTAVYYCAADFATPGPEYDYWGQGTQVTVSS	low polyreactivity
KVKLVESGGGLVQAGGSLRLSCAASGITSWYYAMGWYRQAPGKERELVAAITSDGSTYYADSVKGRFTISRDNAKNTVYLQMNSLKPEVTAVYYCAAERDYWIPDSYLVGMDFWGLGTQVTVSS	low polyreactivity
QVQLVESGGGLVQAGGSLRLSCAASGSIFKTYAMGWYRQAPGKERELVAAITSGVSTNYADSVKGRFTISRDNAKNTVYLQMNSLKPEDTAVYYCNVDTSSPSRRDYDYWGQGTQVTVSS	low polyreactivity
QVQLVESGGGLVQAGGSLRLSCAASGSTFRYNAKGWYRQAPGKERELVAAINRGGGTDYADSVKGRFTISRDNAKNTVYLQMNSLKPEDTAVYYCAKQFVSYNRWLAYGYWGQATQVTVSS	low polyreactivity
QVQLVESGGGLVQAGGSLRLSCAASGSIFFRYTMGWYRQAPGKERELVAAITGDGGSTYADSVKGRFTISRDNAKNTVYLQMNSLNPEDTAVYYCAALSTTGIWGTVSTYYYWGQGTQVTVSS	low polyreactivity
QVQLVESGGGLVQAGGSLRLSCAASGSIFGSYAMGWYRQAPGKERELVAAISSSGGSTYYADSVKGRFTISRVNAKNTVYFQMNSLKPEDTAVYYCNKYVRYGDGYWGQGTQVTVSS	high polyreactivity
QVQLVESGGGLVQAGGSLRLSCAASGFIFGVYAMGWYRQAPGKERELVAAITGRAASTYYADSVKGRFTISRDNAKNTVYLQMNSLKPEDTAVYYCAARKRYRPGERYEYWGQGTQVTVSS	high polyreactivity
QVQLVESGGGLVQAGGSLRLSCAASGSIFSTYTMGWYRQAPGKERELVATIRLRGGSTYYADSVKGRFTISRDNAKNTVYLQMNSLKPEDTAVYYCNKAYRYYQYGYWGQGTQVTVSS	high polyreactivity
QVQLVESGGGLVQAGGSLRLSCAASGRILYGYTMGWYRQAPGKEREFVARITRRGGRTNYADSVKGRFTISRDNAKNTVYLQMNSLKPEDTAVYYCAADPIRDSWWQYFQDGREYDYWGQGTQVTVSS	low polyreactivity
QVQLVESGGGLVQAGRSLRLSCAASGRTFSVNAMGCYRQAPVKERELVAAISWDGGSTYYADSVKGRFTISRDNAKNTVYLQMISLKPEDTSVYDCNKDLYYAYDYWGQGSQVTVSS	low polyreactivity
QVQLEESGGRLVQPGGSLRLSCAASGFIFGIYDMGWYRQAPGKERELVAAITYSGSSTYYADSVKGRFTISRDNAKNTVYLQMNSLKPEDTAVYYCNKTAWDWDYWDPEYDYWGQGTQVTVSS	high polyreactivity
QVQLVESGGGLVQAGGSLRLSCAASGSIFYYNAMGWYRQAPGKERELVAAISFRASSTYYADSVKGRFTISRDNAKNTVYLQMNSLKPEDTAVYYCASSHWHYIPRHHPYGDDYCGQGTQVTVSS	low polyreactivity
